Where two headings read alike, the source gives them in different places. No end group written: not given here.

Consider ten molecules from US7033991.

Common to all, as to conditions: modification not given
The target in one assay is T1, PC7, Q16549.
T1 chain: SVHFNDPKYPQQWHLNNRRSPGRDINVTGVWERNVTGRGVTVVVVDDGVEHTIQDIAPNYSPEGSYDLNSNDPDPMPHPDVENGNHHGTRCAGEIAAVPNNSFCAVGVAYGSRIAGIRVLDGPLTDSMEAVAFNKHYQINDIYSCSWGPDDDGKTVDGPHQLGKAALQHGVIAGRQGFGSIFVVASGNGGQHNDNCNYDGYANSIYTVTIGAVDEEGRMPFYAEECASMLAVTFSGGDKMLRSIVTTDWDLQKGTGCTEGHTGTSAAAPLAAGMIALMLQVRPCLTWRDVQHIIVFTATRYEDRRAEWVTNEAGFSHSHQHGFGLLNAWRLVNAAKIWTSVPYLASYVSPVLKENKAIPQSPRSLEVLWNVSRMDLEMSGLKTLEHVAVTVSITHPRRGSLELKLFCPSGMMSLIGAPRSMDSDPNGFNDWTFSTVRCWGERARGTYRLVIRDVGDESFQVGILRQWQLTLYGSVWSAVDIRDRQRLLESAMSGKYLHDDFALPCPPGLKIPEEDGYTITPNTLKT

Assay [1] has as its target T2, Furin (recombinant, truncated) (mouse), P23188.
T2 chain: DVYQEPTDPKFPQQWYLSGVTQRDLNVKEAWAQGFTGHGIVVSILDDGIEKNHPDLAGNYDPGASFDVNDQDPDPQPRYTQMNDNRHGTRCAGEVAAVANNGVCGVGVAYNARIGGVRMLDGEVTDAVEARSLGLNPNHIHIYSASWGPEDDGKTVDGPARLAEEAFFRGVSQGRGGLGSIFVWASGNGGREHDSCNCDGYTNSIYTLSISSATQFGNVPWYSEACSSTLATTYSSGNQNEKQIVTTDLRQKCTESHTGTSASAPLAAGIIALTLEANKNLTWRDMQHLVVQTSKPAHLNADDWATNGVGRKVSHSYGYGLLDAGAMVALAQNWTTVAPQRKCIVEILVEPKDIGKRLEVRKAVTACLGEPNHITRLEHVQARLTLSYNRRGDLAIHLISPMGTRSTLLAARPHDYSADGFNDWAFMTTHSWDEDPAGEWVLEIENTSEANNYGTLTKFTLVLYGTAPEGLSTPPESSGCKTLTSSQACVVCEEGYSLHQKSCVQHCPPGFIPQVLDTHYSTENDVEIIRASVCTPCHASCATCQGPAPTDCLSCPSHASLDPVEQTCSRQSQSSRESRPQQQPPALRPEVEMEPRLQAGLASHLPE

Assay [2] concerns the target T3, PC2, P16519.
T3 chain: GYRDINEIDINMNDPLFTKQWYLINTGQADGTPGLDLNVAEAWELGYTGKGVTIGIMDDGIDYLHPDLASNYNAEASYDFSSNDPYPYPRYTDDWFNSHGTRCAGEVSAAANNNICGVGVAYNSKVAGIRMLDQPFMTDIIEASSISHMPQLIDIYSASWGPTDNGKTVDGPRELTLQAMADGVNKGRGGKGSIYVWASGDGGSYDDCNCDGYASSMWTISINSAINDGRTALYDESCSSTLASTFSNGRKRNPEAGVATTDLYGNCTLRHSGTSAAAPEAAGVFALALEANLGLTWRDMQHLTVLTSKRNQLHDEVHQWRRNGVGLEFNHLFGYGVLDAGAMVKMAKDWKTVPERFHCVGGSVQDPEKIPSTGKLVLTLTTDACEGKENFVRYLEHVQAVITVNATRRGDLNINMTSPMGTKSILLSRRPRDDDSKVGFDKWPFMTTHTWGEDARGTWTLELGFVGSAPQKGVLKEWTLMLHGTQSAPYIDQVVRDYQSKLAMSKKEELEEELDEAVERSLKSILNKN

Assay [3] concerns the target T4, PACE4, P29122.
T4 chain: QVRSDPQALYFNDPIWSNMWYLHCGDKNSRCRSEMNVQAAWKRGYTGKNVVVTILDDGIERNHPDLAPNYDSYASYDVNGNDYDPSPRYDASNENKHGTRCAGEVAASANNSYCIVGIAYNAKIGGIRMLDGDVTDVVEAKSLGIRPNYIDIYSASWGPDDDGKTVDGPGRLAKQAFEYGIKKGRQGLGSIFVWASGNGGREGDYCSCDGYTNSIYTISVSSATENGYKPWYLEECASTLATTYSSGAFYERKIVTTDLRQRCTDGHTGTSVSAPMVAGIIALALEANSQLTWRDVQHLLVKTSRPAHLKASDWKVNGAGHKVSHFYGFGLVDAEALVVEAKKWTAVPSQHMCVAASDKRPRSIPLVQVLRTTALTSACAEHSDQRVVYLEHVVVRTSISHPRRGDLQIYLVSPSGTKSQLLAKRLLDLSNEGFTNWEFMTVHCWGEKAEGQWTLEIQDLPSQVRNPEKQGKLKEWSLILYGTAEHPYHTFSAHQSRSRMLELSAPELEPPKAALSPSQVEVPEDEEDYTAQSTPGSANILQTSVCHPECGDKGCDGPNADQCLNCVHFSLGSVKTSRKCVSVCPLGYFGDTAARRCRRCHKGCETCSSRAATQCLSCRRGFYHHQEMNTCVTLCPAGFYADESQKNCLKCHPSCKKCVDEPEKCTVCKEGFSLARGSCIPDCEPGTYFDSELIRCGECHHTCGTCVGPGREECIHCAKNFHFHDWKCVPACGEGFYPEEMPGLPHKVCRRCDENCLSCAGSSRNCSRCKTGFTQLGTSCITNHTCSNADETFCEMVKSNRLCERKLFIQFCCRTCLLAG

Assay [4] has as its target T5, PC1, P29120.
T5 chain: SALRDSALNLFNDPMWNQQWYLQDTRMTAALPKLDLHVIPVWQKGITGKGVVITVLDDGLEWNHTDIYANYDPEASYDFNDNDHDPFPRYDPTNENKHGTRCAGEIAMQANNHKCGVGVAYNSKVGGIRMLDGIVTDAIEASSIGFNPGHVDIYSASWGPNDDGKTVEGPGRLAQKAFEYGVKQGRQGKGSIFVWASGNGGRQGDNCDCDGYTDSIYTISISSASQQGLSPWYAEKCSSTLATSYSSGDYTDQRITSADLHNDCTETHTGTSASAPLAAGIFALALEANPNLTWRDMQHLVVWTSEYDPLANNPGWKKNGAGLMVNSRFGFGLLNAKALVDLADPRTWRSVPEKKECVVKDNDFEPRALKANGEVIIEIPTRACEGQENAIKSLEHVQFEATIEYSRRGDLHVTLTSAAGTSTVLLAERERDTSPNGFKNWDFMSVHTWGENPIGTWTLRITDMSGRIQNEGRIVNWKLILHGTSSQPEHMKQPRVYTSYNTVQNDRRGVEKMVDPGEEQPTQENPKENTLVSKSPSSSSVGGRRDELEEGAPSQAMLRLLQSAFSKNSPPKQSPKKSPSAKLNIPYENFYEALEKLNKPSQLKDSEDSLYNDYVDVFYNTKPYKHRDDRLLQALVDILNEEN

The target in assay [5] is T2, Furin (recombinant, truncated) (mouse), ….
For assay [6] the target is unchanged.
In assay [7] the target is T3, PC2, P16519.
Assay [8] addresses T2, Furin (recombinant, truncated) (mouse), ….
Assay [9] deals with T3, PC2, P16519.
Assay [10] deals with T4, PACE4, P29122.
Assay [11] concerns the target T2, Furin (recombinant, truncated) (mouse), ….
Assay [12] addresses T5, PC1, P29120.
Assay [13] deals with T3, PC2, P16519.
Assay [14] deals with T2, Furin (recombinant, truncated) (mouse), ….
Assay [15] addresses T4, PACE4, P29122.
Assay [16] addresses T2, Furin (recombinant, truncated) (mouse), ….
For assay [17], the target named is T5, PC1, P29120.
Assay [18] deals with T5, PC1, P29120.
Assay [19] concerns the target T2, Furin (recombinant, truncated) (mouse), ….
Assay [20] concerns the target T4, PACE4, P29122.
Assay [21] concerns the target T2, Furin (recombinant, truncated) (mouse), ….
Assay [22] deals with T3, PC2, P16519.

With QQVAKRRTKR [Furin propeptide fragment], the Ki with PC7, Q16549 came to 0.5 µM.
As for Ac-MRKRRR-NH2 [Ac-MRKRRR-NH2], the Ki in assay [1] turned out to be 2.3 µM; with PC2, P16519 [2] it was 1500 µM.
RRRR [Tetra-L-arginine]: the Ki was > 200 µM with PACE4, P29122 [3]; > 200 µM with PC1, P29120 [4]; 6.4 µM in assay [5].
Consider Ac-MHKRRR-NH2 [Ac-MHKRRR-NH2], for which the Ki was found to be 10.3 µM in [6] and 216 µM with PC2, P16519 [7].
Consider LLRVKR, for which the inhibitory constant (Ki) worked out at 0.42 µM in assay [8] and 3.7 µM in the assay with PC2, P16519 [9].
With RRRRR [Penta-L-arginine], the Ki with PACE4, P29122 [10] was 0.98 µM; in [11], 0.99 µM; in the assay with PC1, P29120 [12], 14 µM.
In the case of LLRVKR-NH2 [LLRVKR-NH2], the Ki with PC2, P16519 [13] was 2.3 µM; in assay [14] it was 0.8 µM.
In the case of RRRRRRR [Hepta-L-arginine], the Ki with PACE4, P29122 [15] stood at 0.24 µM; in [16], 0.068 µM; with PC1, P29120 [17] it was 5.2 µM.
On to RRRRRR [Hexa-L-arginine], for which the Ki with PC1, P29120 [18] was 3.9 µM; in assay [19], 0.114 µM; with PACE4, P29122 [20], 0.52 µM.
For the molecule Ac-HHKRRR-NH2 [Ac-HHKRRR-NH2], the Ki amounted to 13.2 µM in assay [21] and 235 µM with PC2, P16519 [22].

The term Ki denotes a measure of affinity in units of concentration, obtained from inhibition or displacement.
